Results taken from patent publication US20180237490A1 (HANMI PHARM, published 2018).
Positions of bridges follow the written chain, without caps; N, C: chain ends. Non-standard residues stand in square brackets, D forms with d. No end group written: not given here. *: point of attachment. Acetyl(2-(4-imidazolyl)) = O=C(Cc1c[nH]cn1)*; Aib = CC(C)(N)C(=O)O

Tests used:
Experiment in all cases: cell-based or functional assay
[1] = target: human GLP-1 receptor (human) (UniProt P43220)
[2] = target: human glucagon receptor (human) (UniProt P47871)
Chain of human glucagon receptor (human) (P47871 26-477): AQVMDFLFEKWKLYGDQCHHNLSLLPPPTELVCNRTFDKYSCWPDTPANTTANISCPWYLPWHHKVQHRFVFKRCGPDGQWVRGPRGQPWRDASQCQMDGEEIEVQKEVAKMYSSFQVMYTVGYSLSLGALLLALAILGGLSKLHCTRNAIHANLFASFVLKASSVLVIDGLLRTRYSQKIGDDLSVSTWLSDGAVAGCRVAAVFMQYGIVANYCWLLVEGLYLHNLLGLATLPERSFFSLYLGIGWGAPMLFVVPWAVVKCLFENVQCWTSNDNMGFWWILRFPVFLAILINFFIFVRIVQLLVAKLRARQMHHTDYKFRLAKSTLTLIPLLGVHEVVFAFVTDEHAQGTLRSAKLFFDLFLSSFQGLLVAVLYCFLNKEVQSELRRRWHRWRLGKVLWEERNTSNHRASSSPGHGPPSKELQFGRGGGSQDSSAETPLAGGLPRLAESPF

human glucagon receptor = human glucagon receptor (human, UniProt P47871 26-477)
Chain of human glucagon receptor (P47871 26-477): as above

Chain of human GLP-1 receptor (human) (P43220 24-463): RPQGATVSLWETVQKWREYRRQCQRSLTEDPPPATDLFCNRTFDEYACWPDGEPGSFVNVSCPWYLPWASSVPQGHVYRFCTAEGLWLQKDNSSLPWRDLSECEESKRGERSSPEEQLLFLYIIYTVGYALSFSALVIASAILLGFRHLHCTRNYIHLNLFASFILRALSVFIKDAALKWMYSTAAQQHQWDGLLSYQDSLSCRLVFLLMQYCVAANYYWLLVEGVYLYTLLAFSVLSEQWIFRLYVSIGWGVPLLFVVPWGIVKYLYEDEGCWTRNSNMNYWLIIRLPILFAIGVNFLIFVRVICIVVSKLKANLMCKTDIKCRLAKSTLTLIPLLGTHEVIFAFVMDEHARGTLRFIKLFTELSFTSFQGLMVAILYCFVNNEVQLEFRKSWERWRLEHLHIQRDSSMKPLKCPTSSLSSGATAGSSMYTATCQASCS

B1: oxyntomodulin analog (SEQ ID NO: 3) (peptide)
peptide: [Acetyl(2-(4-imidazolyl))]SQGTFTSDYSKYLDERRAQDFVAWLKNTGPSSGAPPPS
- EC50 (nM), cAMP, CHO/GLP-1R [1]: > 1000 nM
- EC50 (nM), cAMP, CHO/GCGR [2]: 638 nM

B2: oxyntomodulin analog (SEQ ID NO: 25) (peptide)
peptide: H[Aib]QGTFTSDYSKYLDEKRAKEFVQWLMNTC
modifications: bridge 16-20
- EC50 (nM), cAMP, CHO/GCGR (human glucagon receptor): 1.3 nM

B3: oxyntomodulin analog (SEQ ID NO: 8) (peptide)
peptide: [Acetyl(2-(4-imidazolyl))]SQGTFTSDLSRQLEEEAVRLFIEWLMNK
- EC50 (nM), cAMP, CHO/GLP-1R [1]: 420 nM
- EC50 (nM), cAMP, CHO/GCGR [2]: > 1000 nM

B4: oxyntomodulin analog (SEQ ID NO: 34) (peptide)
peptide: Y[Aib]QGTFTSDYSKYLDEKRAKEFVQWLMNTC
modifications: bridge 16-20
- EC50 (nM), cAMP, CHO/GCGR (human glucagon receptor): 1.04 nM

B5: oxyntomodulin analog (SEQ ID NO: 18) (peptide)
peptide: [Acetyl(2-(4-imidazolyl))]SQGTFTSDYSRYLDEEAVRLFIEWIRNGGPSSGAPPPSK
- EC50 (nM), cAMP, CHO/GLP-1R [1]: 96.3 nM
- EC50 (nM), cAMP, CHO/GCGR [2]: > 1000 nM

B6: oxyntomodulin analog (SEQ ID NO: 24) (peptide)
peptide: H[Aib]QGTFTSDYSKYLDEKRAKEFVQWLMNTC
- EC50 (nM), cAMP, CHO/GCGR (human glucagon receptor): 6.95 nM
